Data: patent US20260193638A1 (ROCHE DIAGNOSTICS OPERATIONS, published 2026)

B1: Thermus thermophilus SlyD-FKBP TT10F7 (designed binder)
chain: MRSKVGQDKVVTIRYTLQVEGEVLDQGELSYLHGHRNLIPGLEEALEGREEGEAFQAHVPAEKAYGAGSWKPHFNLHLLYLIGSSGKDLDFQVEVVKVREATPEELLHGHAHGGAAAGLNDIFEAQKIEWHEGSRKHHHHHHHH
notes: captured on the sensor directly from E. coli lysate; also called TT10F7 mutant; TT10F7 T.t.SlyD-FKBP12
B2: Thermus thermophilus SlyD-FKBP clone C10B9 (designed binder)
chain: MRSKVGQDKVVTIRYTLQVEGEVLDQGELSYLHGHRNLIPGLEEALEGREEGEAFQAHVPAEKAYGAGSYYVLITDNLVYFGGSSGKDLDFQVEVVKVREATPEELLHGHGGAAAGLNDIFEAQKIEWHEGSRKHHHHHHHH
notes: also called C10B9 mutant

Key:
[1] = target: T1, human recombinant TNFα (fully intact trimeric TNFα) (human, UniProt P01375 77-233); experiment: SPR, TT10F7 captured, TNFα (52 kDa trimer) in solution, + TWEEN 20
T1 construct: also called hrTNFα
Protocol: (§1) The samples were diluted in the instrument's buffer. In another embodiment the buffer was HBS-E buffer (10 mM HEPES pH 7.4, 150 mM NaCl, 3 mM EDTA) and the samples were diluted in the detergent-free buffer. The system operated at 25° C. 10000 RU GAR-Fcγ (relative units of Fcγ-fragment binding, polyclonal goat anti-Rabbit IgG/Jackson Laboratories) were immobilized according to the manufacturer's instructions using EDC/NHS chemistry on all 4 flow cells. The sensor is finally deactivated using 1M ethanolamine. […] A monoclonal rabbit anti-Thermus thermophilus SlyD core protein (0612pS3A8) binding antibody, was captured in all flow cells by a 6 min injection at 5 μl/min. […] Flow cell 1 served as a reference. […] The Thermus thermophilus SlyD-FKBP clones were specifically captured on the sensor by a 2 min injection at 30 μl/min directly from a 1:25 diluted 10000 g-centrifuged E. coli lysate supernatant.
(§2) The flow rate was set to 100 μl/min. […] The dissociation was monitored for 5 minutes.

[2] = target: Streptavidin (11897000, Roche) (UniProt P22629 37-163, limits assumed); experiment: SPR, TT10F7 captured via anti-SlyD antibody, streptavidin in solution
Protocol: as §1, §2

[3] = target: T1, human recombinant TNFα (fully intact …); experiment: SPR, TT10F7 captured, TNFα (52 kDa trimer) in solution, - TWEEN 20
Protocol: as §1, §2

[4] = target: T1, human recombinant TNFα (fully intact …); experiment: SPR BIACORE 3000, TT10F7 captured via anti-SlyD antibody, trimeric TNFα as analyte
Protocol: as §1, with “A CM5 series sensor was mounted into the system and was normalized in HBS-ET buffer (10 mM HEPES pH 7.4, 150 mM NaCl, 3 mM EDTA, 0.005% w/v Tween 20) according to the manufacturer's instructions. The samples” for “The samples”
as §2

[5] = target: T1, human recombinant TNFα (fully intact …); experiment: SPR, C10B9 captured via anti-SlyD antibody, TNFα in solution
Protocol: as §1, §2

T1 sequence (P01375 77-233 limits assumed): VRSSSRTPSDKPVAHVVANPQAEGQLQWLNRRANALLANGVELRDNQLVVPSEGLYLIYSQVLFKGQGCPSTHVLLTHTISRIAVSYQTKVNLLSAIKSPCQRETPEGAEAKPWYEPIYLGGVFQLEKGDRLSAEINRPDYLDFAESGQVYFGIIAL
Streptavidin (11897000, Roche), sequence (P22629 37-163 limits assumed): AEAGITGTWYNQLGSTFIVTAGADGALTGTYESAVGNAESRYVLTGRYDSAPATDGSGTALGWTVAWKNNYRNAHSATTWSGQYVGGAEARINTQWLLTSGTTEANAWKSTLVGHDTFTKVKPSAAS

Binder	Kd [1] [nM]	koff [1] [s⁻¹]	kon [1] [M⁻¹ s⁻¹]	binding result [2]	Kd [3] [nM]	koff [3] [s⁻¹]	kon [3] [M⁻¹ s⁻¹]	stoichiometry [4]	binding result [5]
B1	258	0.00268	10400	no binding (tested: 1 µM)	262	0.00103	3960	3 to 1	
B2									no binding (tested: 1 µM)
